The record followed here is PMC11761708.

For this assay, the target named is protein G-Fc (Fc specific protein G variant). As to the kind of experiment: SPR.

In the case of “human Fc (Fc domain of IgG) (domain or fragment)”, the Kd is 3.8 nM.
